This passage reports self-cleavage results from the RNAGym collection of RNA variant scans (doi:10.7554/elife.90254).

First the molecules themselves.
B1: OR4K15 (parent)
chain: GUUAACGGUCAUAGGCCAUGGAAACUAGGAGCACCAUUUCGCUGCCAGUGAAGAAAUGAACAAAGAAAAUCUGGGCCAGGCAGGCAUCAAAAGAAAUAGUCUUGCGCUCAACCAGAAAGUCUGUAAUCAUUUUAAGGGUA

The series covers variants of B1. Nature of the series: self-cleavage, relative activity (ratio to wild type); higher = more cleavage; in vitro, sequencing; the parent is a self-cleaving ribozyme.
With A18G A59C, the self-cleavage worked out at 1.7.

In the case of A18G A59U, the self-cleavage was 1.65.

Regarding A13U G80C, the self-cleavage was 0.26.

On to C17A A118G, for which the self-cleavage was determined as 0.97.

On to A13G A22G, for which the self-cleavage is 1.11.

For G14A A63U, the self-cleavage came to 1.23.

Consider C17U U38A, for which the self-cleavage was found to be 1.03.

With G15A A68G, the self-cleavage turned out to be 1.73.

As to C16G A24G, the self-cleavage turned out to be 0.51.

G14A U124C: the self-cleavage came out at 0.47.

On to C17U A94G, for which the self-cleavage amounted to 1.32.

Take G15A U19C: the self-cleavage stood at 0.

With A18G A63G, the self-cleavage came to 1.17.

Regarding A13U A23G, the self-cleavage came to 1.43.

Take A13U A66G: the self-cleavage is 1.49.

For the variant A13G A91G, the self-cleavage turned out to be 0.9.

Turning to A13G A91C, the self-cleavage turned out to be 1.81.

Turning to A13G A91U, the self-cleavage amounted to 0.92.

Turning to A13G U87A, the self-cleavage was 0.92.

On to C16G A55G, for which the self-cleavage turned out to be 0.86.

As to G15A A126G, the self-cleavage came out at 1.51.

Regarding G15A A86G, the self-cleavage was 1.6.

Consider A18C A95G, for which the self-cleavage is 2.19.

On to A13G A66G, for which the self-cleavage came to 0.55.

In the case of G14A C71U, the self-cleavage is 0.37.

Consider U12C C85A, for which the self-cleavage worked out at 0.75.

Turning to A13G G123U, the self-cleavage came to 1.33.

For the variant A13G G123C, the self-cleavage stood at 1.35.

In the case of G14C A89G, the self-cleavage came to 2.26.

C16A G83U: the self-cleavage was 0.41.

C16A U102C: the self-cleavage came out at 1.49.

For C16G A89G, the self-cleavage came out at 0.74.

On to A13U C105U, for which the self-cleavage worked out at 0.23.

In the case of C16A U38C, the self-cleavage stood at 0.92.

For A13G A95U, the self-cleavage is 2.06.

A13G A95G: the self-cleavage is 1.

Regarding U12C U57G, the self-cleavage was found to be 1.33.

In the case of A18G A64G, the self-cleavage turned out to be 1.11.

For the variant A18G A64U, the self-cleavage is 1.92.

Turning to U12C U120C, the self-cleavage was determined as 0.75.

Turning to A13G A69G, the self-cleavage turned out to be 0.92.

Consider C17U U132C, for which the self-cleavage was 1.02.

As for G15U U38A, the self-cleavage worked out at 1.8.

In the case of A18C A68U, the self-cleavage turned out to be 1.04.

For the variant U12C U127C, the self-cleavage turned out to be 0.62.

A13U A54G: the self-cleavage was 0.73.

Take C16U U72A: the self-cleavage worked out at 0.53.

On to C17A A59U, for which the self-cleavage amounted to 1.14.

Take G15C G83A: the self-cleavage turned out to be 2.06.

In the case of A13G G20A, the self-cleavage was 0.94.

In the case of A18C U127C, the self-cleavage was determined as 0.63.

Turning to A13G A140C, the self-cleavage came to 1.31.

In the case of A13G A140G, the self-cleavage amounted to 0.62.

For the variant A13G A64G, the self-cleavage was found to be 0.88.

On to A13G A64C, for which the self-cleavage is 1.08.

For the variant A18G A36G, the self-cleavage was 1.4.

A13G G65A: the self-cleavage came out at 1.2.

For the variant G15A A62G, the self-cleavage stood at 0.1.

As to C17U A118G, the self-cleavage amounted to 1.1.

Turning to A13G A56G, the self-cleavage came out at 1.04.

For A13G A56U, the self-cleavage was 1.33.

Consider A13G A89U, for which the self-cleavage amounted to 1.09.

Take C16G A47U: the self-cleavage came to 0.8.

For C16U A94U, the self-cleavage stood at 1.89.

In the case of G15A U120C, the self-cleavage turned out to be 1.01.

Consider G15A U120A, for which the self-cleavage came out at 1.72.

As for G15U A69G, the self-cleavage was 1.46.

As for A13G A36U, the self-cleavage stood at 0.67.

As to C17U A95G, the self-cleavage stood at 2.06.

Turning to G14A A110G, the self-cleavage stood at 0.13.

With C17U A23G, the self-cleavage is 1.37.

For A13G A90G, the self-cleavage is 1.15.

As for G14A A78U, the self-cleavage amounted to 0.22.

For the variant A13U C121A, the self-cleavage turned out to be 1.92.

For G14U A54G, the self-cleavage was 1.65.

Take G15A U72C: the self-cleavage turned out to be 0.37.

Take A13C U120C: the self-cleavage is 1.78.

On to A13U A82U, for which the self-cleavage is 0.24.

Regarding A18G A23U, the self-cleavage is 1.88.

Regarding G15A C113G, the self-cleavage was found to be 0.02.

For C16G U124A, the self-cleavage was 0.77.

For A13C A60G, the self-cleavage was 1.39.

Consider A18G A56G, for which the self-cleavage turned out to be 1.27.

Regarding A18G A33U, the self-cleavage stood at 1.92.

On to G14A A64G, for which the self-cleavage came out at 1.06.

C17A A24G: the self-cleavage turned out to be 1.64.

Regarding A18C U39A, the self-cleavage was determined as 1.48.

As for A18C A52G, the self-cleavage came to 1.51.

Consider C17A U103C, for which the self-cleavage was determined as 1.08.

As to A13C U122C, the self-cleavage was 1.03.

Take A13C U122G: the self-cleavage amounted to 2.12.

Regarding A13G G104A, the self-cleavage was 0.06.

Regarding A18G A47U, the self-cleavage is 1.1.

In the case of A13G U97A, the self-cleavage is 1.2.

Regarding A13U A67G, the self-cleavage stood at 1.14.

For the variant A13G U70G, the self-cleavage worked out at 1.1.

In the case of C16U A22C, the self-cleavage came to 1.53.

Regarding C16U A22U, the self-cleavage stood at 1.32.

As for C16U A23U, the self-cleavage was found to be 1.24.

As to G15C A51U, the self-cleavage amounted to 1.07.

In the case of A13U U97C, the self-cleavage was 1.4.

On to G14U U102A, for which the self-cleavage was 0.36.

For C17A A78G, the self-cleavage turned out to be 0.1.

For the variant A13G A78G, the self-cleavage was determined as 0.52.

Turning to C16A A22G, the self-cleavage turned out to be 1.29.

As to G15A U122C, the self-cleavage was 0.95.

G14A G20A: the self-cleavage amounted to 1.49.

With G15A A66U, the self-cleavage turned out to be 1.18.

With C17U U124A, the self-cleavage was found to be 1.1.

As to C16G A95G, the self-cleavage is 1.06.

Consider C16U U103C, for which the self-cleavage was 0.77.

In the case of A13U U132C, the self-cleavage came to 2.18.

Take A13U U132A: the self-cleavage was determined as 0.96.

A13G A47U: the self-cleavage came out at 1.26.

In the case of C17A A56G, the self-cleavage stood at 2.2.

Turning to U12G A24G, the self-cleavage stood at 1.1.

In the case of G14A A134U, the self-cleavage came to 0.5.

For the variant A18C A140G, the self-cleavage is 0.94.

Consider C16A A56C, for which the self-cleavage worked out at 0.52.

A13C A51U: the self-cleavage amounted to 1.65.

As for C17U A110G, the self-cleavage is 0.05.

As to A13G A55U, the self-cleavage was 1.2.

A13G A55G: the self-cleavage stood at 0.97.

C16U A114G: the self-cleavage was 0.2.

A13G A67G: the self-cleavage stood at 1.

As to A13G A67C, the self-cleavage was 0.22.

As for G14A A66G, the self-cleavage came to 0.8.

As for A18C A96U, the self-cleavage was found to be 0.98.

Turning to A18G A68G, the self-cleavage was determined as 1.16.

Regarding G14A A36U, the self-cleavage was determined as 0.83.

Consider A13G C61U, for which the self-cleavage amounted to 0.68.

In the case of C16U A66U, the self-cleavage worked out at 1.27.

In the case of U12C G31U, the self-cleavage is 1.48.

On to C17A A135C, for which the self-cleavage amounted to 1.23.

With G14U U38C, the self-cleavage came to 0.66.

As to G15A A64U, the self-cleavage came out at 1.37.

For A13G A126U, the self-cleavage was found to be 0.88.

Turning to G15A U103C, the self-cleavage was found to be 0.82.

Turning to G15U A118G, the self-cleavage was 1.88.

Consider A13U A60U, for which the self-cleavage was determined as 2.26.

On to G15A A129G, for which the self-cleavage is 1.19.

Regarding A18C U57C, the self-cleavage came out at 0.

A13U U127C: the self-cleavage amounted to 0.75.

On to G14U A116G, for which the self-cleavage worked out at 0.63.

On to A13G A30U, for which the self-cleavage worked out at 1.14.

As for A13G A30G, the self-cleavage came to 1.

With A13G C88U, the self-cleavage is 1.29.

Take A13U A33C: the self-cleavage was found to be 2.21.

Take U12C A134G: the self-cleavage turned out to be 1.7.

As for A13U A129U, the self-cleavage amounted to 0.73.

Consider G14U A56G, for which the self-cleavage came to 1.18.

For C17U U131A, the self-cleavage stood at 0.93.

Turning to C17U U131C, the self-cleavage amounted to 0.73.

Turning to G15C G73A, the self-cleavage came to 0.17.

As to C17U A18U, the self-cleavage was determined as 1.26.

On to C16U U39G, for which the self-cleavage stood at 1.27.

Consider G14U A89G, for which the self-cleavage turned out to be 1.39.

Turning to A13G U38C, the self-cleavage is 1.14.

Consider A13G A116G, for which the self-cleavage was 0.55.

Consider C16U A30U, for which the self-cleavage stood at 1.

Regarding C16U A30G, the self-cleavage came out at 1.27.

For the variant G15A A51U, the self-cleavage worked out at 1.78.

Take G15A A51G: the self-cleavage is 1.52.

As for A13G A117G, the self-cleavage was determined as 1.11.

On to C17U A47U, for which the self-cleavage turned out to be 1.43.

C16A U39A: the self-cleavage amounted to 1.23.

For C17A U19C, the self-cleavage worked out at 0.87.
